Among the data in PMC3728706 are Kd values, retold here.

B1: Tip1 PDZ domain (domain or fragment)
chain: RVEIHKLRQGENLILGFSIGGGIDQDPSQNPFSEDKTDKGIYVTRVSEGGPAEIAGLQIGDKIMQVNGWDMTMVTHDQARKRLTKRSEEVVRLLVTRQ
B2: PDZ11 PDZ domain (domain or fragment)
chain: IVTLKKPPGAQLGFNIRGGKASQLGIFISKVIPDSDAHRAGLQEGDQVLAVNDVDFQDIEHSKAVEILKTAREISMRVRFFPY
B3: Synip PDZ domain (domain or fragment)
chain: AFRVITVTKETGLGLKILGGINRNEGPLVYIHEVIPGGDCYKDGRLKPGDQLVSINKESMIGVSFEEAKSIITRAKLRSESPWEIAF
B4: Tiam2 PDZ domain (domain or fragment)
chain: DVQLTKTGDMTDFGFAVTVQVDEHQHLNRIFISDVLPDSLAYGGGLRKGNEITSLNGEPVSDLDIQQMEALFSEKSVGLTLVARPVT
B5: Shank3 PDZ domain (domain or fragment)
chain: VAILQKRDHEGFGFVLRGAKAETPIEEFTPTPAFPALQYLESVDVEGVAWRAGLRTGDFLIEVNGVNVVKVGHKQVVGLIRQGGNRLVMKVVSVT

This assay concerns the target fluorescently labeled peptide derived from the C-terminus of β-catenin. In words: fluorescence polarisation.
With “Erbin PDZ domain (from UniProt Q80TH2 1311-1400) (domain or fragment)”, the Kd worked out at 6 µM. This counts as single-digit micromolar.
The value for Grip1 PDZ domain (domain or fragment) was 369 µM; that for “LIN7 PDZ domain (from UniProt O88951 93-175) (domain or fragment)” was 25 µM; that for “Magi-1 PDZ domain 6 (domain or fragment)” was 1 µM.
For Magi-2 PDZ domain (domain or fragment) the value was 0.6 µM.
Magi-3 PDZ domain (domain or fragment) returned a Kd of 1 µM.
The value for NHERF-1 PDZ domain (domain or fragment) was 20 µM; that for PDZk3 PDZ domain (domain or fragment) was 207 µM.
For PDZk7 PDZ domain (domain or fragment) the value was 103 µM; for PSD95 PDZ domain (domain or fragment), 31 µM.
The value for PTP-BL PDZ domain (domain or fragment) was 79 µM; that for Pard3 PDZ domain (domain or fragment) was 100 µM.
Consider SAP97 PDZ domain (domain or fragment), for which the Kd is 342 µM. Compared with the last molecule, the Kd is about 3.4-fold higher.
The value for Scrib PDZ domain (domain or fragment) was 13 µM; that for B1 was 0.3 µM.
The value for B2 was 333 µM.
For B3, the equilibrium dissociation constant (Kd) was 276 µM.
Consider B4, for which the Kd amounted to 1 µM.
For B5 the value was 9 µM.
